# Assay results as given in article PMC11234463, “Structural Evolution of Bacterial Polyphosphate Degradation Enzyme for Phosphorus Cycling” (Advanced Science, 2024).
# Tests used:
# [1] = biological target: KpPPX, exopolyphosphatase (PPX) from Klebsiella pneumoniae (Klebsiella pneumoniae 1158); experiment: crystal structure; sitting drop vapor diffusion at 20 °C, protein 1-5 mg/mL; molecular replacement with E. coli PPX (PDB 1U6Z); dimers seen in the crystals
# [2] = biological target: AbPPX, exopolyphosphatase (PPX) from Acinetobacter baumannii (Acinetobacter baumannii 15827); experiment: as above
# [3] = biological target: DrPPX, exopolyphosphatase (PPX) from Deinococcus radiodurans, wild type (Deinococcus radiodurans R1); experiment: as above
# [4] = biological target: DrPPX, exopolyphosphatase (PPX) from Deinococcus radiodurans, wild type (Deinococcus radiodurans R1); experiment: SEC; gel filtration chromatography; elution peak of DrPPX (+7AA) compared with that of wild-type DrPPX
# DrPPX = biological target: T1, DrPPX (Deinococcus radiodurans, UniProt Q9RYW9); experiment: X-ray crystal structure of complex; conditions: crystals grown in 1.26 M NaH2PO4 and 0.14 M K2HPO4, pH 5.6; four phosphate ions in the polyP-binding area
# T1 construct: gene DR_A0185; full length, N-terminal His6 tag (pET-28a), expressed in E. coli BL21 Rosetta pLysS (DE3); asymmetric homodimer; about 515 residues (C-terminal deletion printed as 320-515)
# T1 sequence (Q9RYW9 entry or part of it): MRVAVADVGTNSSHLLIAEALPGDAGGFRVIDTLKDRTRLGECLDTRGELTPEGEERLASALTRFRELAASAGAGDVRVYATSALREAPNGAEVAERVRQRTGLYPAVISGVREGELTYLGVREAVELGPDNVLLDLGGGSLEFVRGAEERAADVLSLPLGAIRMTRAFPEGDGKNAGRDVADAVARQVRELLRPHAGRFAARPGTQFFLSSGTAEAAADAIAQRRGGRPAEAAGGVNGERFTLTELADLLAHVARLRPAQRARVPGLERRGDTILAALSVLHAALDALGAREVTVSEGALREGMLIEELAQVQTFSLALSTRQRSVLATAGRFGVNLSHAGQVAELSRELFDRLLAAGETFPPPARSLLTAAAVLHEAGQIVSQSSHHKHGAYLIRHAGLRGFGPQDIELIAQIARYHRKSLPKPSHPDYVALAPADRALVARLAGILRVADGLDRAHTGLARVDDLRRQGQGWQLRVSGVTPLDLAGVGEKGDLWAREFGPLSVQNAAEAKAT
compound,measurement,setting,value
"KpPPX, exopolyphosphatase (PPX) from Klebsiella pneumoniae (enzyme)",stoichiometry N,[1],2
"AbPPX, exopolyphosphatase (PPX) from Acinetobacter baumannii (enzyme)",stoichiometry N,[2],2
"DrPPX, exopolyphosphatase (PPX) from Deinococcus radiodurans, wild type (enzyme)",stoichiometry N,[3],2
same,stoichiometry N,[4],2
"O=P(O)(O)O [Pi, phosphate]",X-ray crystal structure of complex,DrPPX,four phosphate ions were located in the polyP‐binding area
